Results: paper PMC4155688, “Mapping the Putative G Protein-coupled Receptor (GPCR) Docking Site on GPCR Kinase 2” (The Journal of Biological Chemistry, 2014)

B1: RlucII-GRK2 (wild type) [human] / α2AAR-GFP^2 [not stated] (parent)
chain 1: MADLEAVLADVSYLMAMEKSKATPAARASKKILLPEPSIRSVMQKYLEDRGEVTFEKIFSQKLGYLLFRDFCLNHLEEARPLVEFYEEIKKYEKLETEEERVARSREIFDSYIMKELLACSHPFSKSATEHVQGHLGKKQVPPDLFQPYIEEICQNLRGDVFQKFIESDKFTRFCQWKNVELNIHLTMNDFSVHRIIGRGGFGEVYGCRKADTGKMYAMKCLDKKRIKMKQGETLALNERIMLSLVSTGDCPFIVCMSYAFHTPDKLSFILDLMNGGDLHYHLSQHGVFSEADMRFYAAEIILGLEHMHNRFVVYRDLKPANILLDEHGHVRISDLGLACDFSKKKPHASVGTHGYMAPEVLQKGVAYDSSADWFSLGCMLFKLLRGHSPFRQHKTKDKHEIDRMTLTMAVELPDSFSPELRSLLEGLLQRDVNRRLGCLGRGAQEVKESPFFRSLDWQMVFLQKYPPPLIPPRGEVNAADAFDIGSFDEEDTKGIKLLDSDQELYRNFPLTISERWQQEVAETVFDTINAETDRLEARKKAKNKQLGHEEDYALGKDCIMHGYMSKMGNPFLTQWQRRYFYLFPNRLEWRGEGEAPQSLLTMEEIQSVEETQIKERKCLLLKIRGGKQFILQCDSDPELVQWKKELRDAYREAQQLVQRVPKMKNKPRSPVVELSKVPLVQRGSANGL
chain 2: MFRQEQPLAEGSFAPMGSLQPDAGNASWNGTEAPGGGARATPYSLQVTLTLVCLAGLLMLLTVFGNVLVIIAVFTSRALKAPQNLFLVSLASADILVATLVIPFSLANEVMGYWYFGKAWCEIYLALDVLFCTSSIVHLCAISLDRYWSITQAIEYNLKRTPRRIKAIIITVWVISAVISFPPLISIEKKGGGGGPQPAEPRCEINDQKWYVISSCIGSFFAPCLIMILVYVRIYQIAKRRTRVPPSRRGPDAVAAPPGGTERRPNGLGPERSAGPGGAEAEPLPTQLNGAPGEPAPAGPRDTDALDLEESSSSDHAERPPGPRRPERGPRGKGKARASQVKPGDSLPRRGPGATGIGTPAAGPGEERVGAAKASRWRGRQNREKRFTFVLAVVIGVFVVCWFPFFFTYTLTAVGCSVPRTLFKFFFWFGYCNSSLNPVIYTIFNHDFRRAFKKILCRGDRKRIV

Variants of: B1
Experiment: BRET
Conditions: with α2AAR-GFP^2; HEK293T cells; 100 μm NOR for 6 min; read off a plot

response	Variant
0.033	chain 1 P473E
0.032	chain 1 K220R
0.018	chain 1 I485A
0.027	chain 1 M15A

The remaining lines, values behind:

Variant	response
chain 1 G475I	0.016
chain 1 E18A	0.05
chain 1 A482I	0.059
chain 1 D3A	0.026
chain 1 D481A	0.049
chain 1 D10R	0.041
chain 1 D10A	0.026

Variants of: B1
Experiment: BRET dose-response
Conditions: with α2AAR-GFP^2; HEK293T cells; point at highest NOR concentration, log [NOR] = -3; read off a plot

response	Variant
0.031	chain 1 K220R
